According to patent US20170319688A1 (Genentech, published 2017):

T1: human RSPO3 (human, UniProt Q9BXY4 22-272)
T1 construct: Recombinant human RSPO3 protein (Genentech); also called huRSPO3; hRSPO3
T1 sequence: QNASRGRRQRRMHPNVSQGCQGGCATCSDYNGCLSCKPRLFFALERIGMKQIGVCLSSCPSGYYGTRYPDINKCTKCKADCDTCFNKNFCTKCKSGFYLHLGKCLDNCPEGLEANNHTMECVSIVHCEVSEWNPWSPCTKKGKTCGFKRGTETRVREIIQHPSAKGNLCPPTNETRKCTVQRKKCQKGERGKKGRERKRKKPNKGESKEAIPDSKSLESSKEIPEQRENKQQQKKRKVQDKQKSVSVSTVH

T2: murine RSPO3 (R&D Systems Cat. No. 4120-RS/CF) (murine, UniProt Q2TJ95 22-277, limits assumed)
T2 construct: also called mouse RSPO3
T2 sequence (looked up): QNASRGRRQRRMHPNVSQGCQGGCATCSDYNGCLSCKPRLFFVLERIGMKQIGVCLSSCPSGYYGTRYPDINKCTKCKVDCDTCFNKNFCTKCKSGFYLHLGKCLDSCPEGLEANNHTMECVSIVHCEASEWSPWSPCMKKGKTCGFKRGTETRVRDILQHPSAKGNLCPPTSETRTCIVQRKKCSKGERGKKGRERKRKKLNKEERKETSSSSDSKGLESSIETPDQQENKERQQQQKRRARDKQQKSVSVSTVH

T3: cynomolgus RSPO3 (cynomolgus, UniProt A0A2K5UTQ7 22-273)
T3 construct: also called cyno RSPO3
T3 sequence: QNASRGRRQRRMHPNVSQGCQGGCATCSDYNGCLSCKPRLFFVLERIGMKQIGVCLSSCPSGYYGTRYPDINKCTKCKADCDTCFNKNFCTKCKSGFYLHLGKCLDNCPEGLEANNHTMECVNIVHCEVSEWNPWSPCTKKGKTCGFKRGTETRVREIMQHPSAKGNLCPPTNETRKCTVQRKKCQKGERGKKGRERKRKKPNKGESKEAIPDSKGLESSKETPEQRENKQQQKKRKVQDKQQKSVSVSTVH


How the values were obtained:
Assay in all cases: SPR (BIAcore T200), RSPO3 immobilized, antibody injected, 25 C, 1:1 Langmuir
[1] = target: T1, human RSPO3
[2] = target: T2, murine RSPO3 (R&D Systems Cat. No. …)
[3] = target: T3, cynomolgus RSPO3

| Binder | Kd [1] [nM] | koff [1] [s⁻¹] | kon [1] [M⁻¹ s⁻¹] | Kd [2] [nM] | koff [2] [s⁻¹] | kon [2] [M⁻¹ s⁻¹] | Kd [3] [nM] | koff [3] [s⁻¹] | kon [3] [M⁻¹ s⁻¹] |
| --- | --- | --- | --- | --- | --- | --- | --- | --- | --- |
| chimeric 11C10 (antibody, V domains shown, Chimeric counterpart with the rat 11C10 variable domains) VH: EVQLVESGGGLVQPGRSLKLSCAASGFTFSDYDMAWVRQAPKKGLEWVATIIYDGSRTYYRDSVKGRFTISRANAKSTLYLQMDSLRSEDTATYYCATHDKTFDYWGQGVMVTVSS VL: DIQMTQSPASLSASLGETVTIECRASEDIYSDLAWYQQKPGNSPQLLIYDVNSLIHGVPSRFSGSGSGTQFSLKINNLQSEDVASYFCQQYDNYPNTFGAGTKLELK | 2.67 | 0.00113 | 425000 | 2.76 | 0.00107 | 388000 | 1.52 | 0.000963 | 633000 |
| chimeric 15F3 (antibody, V domains shown, Chimeric counterpart with the rat 15F3 variable domains) VH: EVQLVESGGGLVQPGRSLKLSCAASGFTFSDYDMAWVRQAPKKGLEWVATIIYDGSRAYFGDSVRGRFTVSRDNTKSTLYLQMDSLRSEDTATYYCTAHDRSFDYWGQGVMVTVSS VL: DIQMTQSPASLSASLGETVSIECLVSEDISNDFVWYQQKSGKSPQLLIYAASRLQDGVPSRFSGSGSGTRFSLRISGMQPEDEAEYFCQQSYKYPPTFGAGTKLELK | 0.845 | 0.000151 | 179000 | 0.926 | 0.000156 | 169000 | 0.576 | 0.000121 | 210000 |
| hu4A6.L4H2 (antibody, V domains shown, CDR graft only (L4, H2); also called humanized 4A6) VH: EVQLVESGGGVVQPGRSLRLSCAASGFTFSDYDMAWVRQAPGKGLEWVATIIYDGSRTYYRDSVKGRFTISRDNSKNTLYLQMNSLRAEDTAVYYCAAHDRSFDYWGQGTMVTVSS VL: DIQMTQSPSSLSASVGDRVTITCLASEDISNDLVWYQQKPGKAPKLLIYAASRLQDGVPSRFSGSGFGTDFTLTISSLQPEDFATYYCQQSYKYLPTFGQGTKLEIK | 0.434 | 8.47e-05 | 195000 | 0.441 | 8.08e-05 | 183000 | 0.247 | 5.95e-05 | 241000 |
| hu11C10.L5H1 (antibody, V domains shown, CDR graft light chain L5 with H1; also called humanized 11C10) VH: EVQLVESGGGVVQPGRSLRLSCAASGFTFSDYDMAWVRQAPGKGLEWVATIIYDGSRTYYRDSVKGRFTISRDNSKNTLYLQMNSLRAEDTAVYYCATHDKTFDYWGQGTMVTVSS VL: DIQLTQSPSSLSASVGDRVTITCRASEDIYSDLAWYQQKPGKAPKLLIYDVNSLIHGVPSRFSGSGSGTDFTLTISSLQPEDFATYYCQQYDNYPNTFGQGTKLEIK | 3.01 | 0.00145 | 480000 | 3.22 | 0.00138 | 429000 | 1.75 | 0.00121 | 695000 |
| hu15F3.L4H2 (antibody, V domains shown, CDR graft only (L4, H2); also called humanized 15F3) VH: EVQLVESGGGVVQPGRSLRLSCAASGFTFSDYDMAWVRQAPGKGLEWVATIIYDGSRAYFGDSVRGRFTISRDNSKNTLYLQMNSLRAEDTAVYYCTAHDRSFDYWGQGTMVTVSS VL: DIQMTQSPSSLSASVGDRVTITCLVSEDISNDFVWYQQKPGKAPKLLIYAASRLQDGVPSRFSGSGSGTDFTLTISSLQPEDFATYYCQQSYKYPPTFGQGTKLEIK | 0.839 | 0.000164 | 196000 | 0.775 | 0.000147 | 190000 | 0.466 | 0.000116 | 248000 |

Further binders by falling Kd [1], results first:

| Kd [1] [nM] | koff [1] [s⁻¹] | kon [1] [M⁻¹ s⁻¹] | Kd [2] [nM] | koff [2] [s⁻¹] | kon [2] [M⁻¹ s⁻¹] | Kd [3] [nM] | koff [3] [s⁻¹] | kon [3] [M⁻¹ s⁻¹] | Binder |
| --- | --- | --- | --- | --- | --- | --- | --- | --- | --- |
| 0.485 | 0.000127 | 261000 | 0.913 | 0.000326 | 357000 | 0.697 | 0.000321 | 461000 | anti-RSPO3 antibody 5D6 (WO2015/058132) (antibody, V domains shown) VH: EVQLQESGPSLVKPSQTLSLTCSVTGDSITSGYWNWIRKFPGNKFEYMGYISYSGKTYQNPSLKSRISITRDTSKNQYHLQLNSVTTEDTATYYCATYYGYGGPWFAYWGQGTLVTVSA VL: DIVLTQSPSSMYASLGERVTITCKASQDIDSYLSWFQQKPGKSPKTLIYLTNRLVDGVPSRFSGSGSGQDYSLTISSLEYEDMGIYYCLHYDEFPLTFGAGTKLEIK |
| 0.363 | 5.85e-05 | 161000 | 0.337 | 5.22e-05 | 155000 | 0.174 | 3.36e-05 | 194000 | chimeric 4A6 (antibody, V domains shown, Chimeric counterpart of hu4A6 with the rat 4A6 variable domains) VH: EVQLVESGGGSVQPGRSLKVSCAASGFTFSDYDMAWVRQAPKKGLEWVATIIYDGSRTYYRDSVKGRFTLSRDNTKSTLCLQMDSLRSEDTATYYCAAHDRSFDYWGQGIMVTVSS VL: DIQMTQSPASLSASLGETVSIECLASEDISNDLVWYQQKSGKSPQLLIYAASRLQDGVPSRFSGSGFGTRFSLKISGMQPEDEADYFCQQSYKYLPTFGAGTKLGLK |
